Data on 13 molecules can be found in article PMC12439599 (RNA (New York, N.Y.), 2025).

B2: human eIF2β-K3 (K-box 3 with surrounding segments) (domain or fragment, UniProt P20042 106-173, looked up)
chain: DVQEPTEPEDDLDIMLGNKKKKKKNVKFPDEDEILEKDEALEDEDNKKDDGISFSNQTGPAWAGSERD
B3: human eIF2Bε-CTD phosphomimetic mutant (eIF2Bε-CTD-EE) (domain or fragment)
chain: GSPQMDDIKVFQNEVLGTLQRGKEENISCDNLVLEINSLKYAYNISLKEVMQVLSHVVLEFPLQQMDSPLDSSRYCALLLPLLKAWSPVFRNYIKRAADHLEALAAIEDFFLEHEALGISMAKVLMAFYQLEILAEETILSWFSQRDTTDKGQQLRKNQQLQRFIQWLKEAEEEEEEDD
B4: human eIF2Bε-CTD (domain or fragment, UniProt Q13144 543-721, looked up)
chain: GSPQMDDIKVFQNEVLGTLQRGKEENISCDNLVLEINSLKYAYNISLKEVMQVLSHVVLEFPLQQMDSPLDSSRYCALLLPLLKAWSPVFRNYIKRAADHLEALAAIEDFFLEHEALGISMAKVLMAFYQLEILAEETILSWFSQRDTTDKGQQLRKNQQLQRFIQWLKEAEEESSEDD
B6: human eIF5-CTD (residues 232–431) (domain or fragment, UniProt P55010 232-431, looked up)
chain: LERTIEERVNILFDFVKKKKEEGVIDSSDKEIVAEAERLDVKAMGPLVLTEVLFNEKIREQIKKYRRHFLRFCHNNKKAQRYLLHGLECVVAMHQAQLISKIPHILKEMYDADLLEEEVIISWSEKASKKYVSKELAKEIRVKAEPFIKWLKEAEEESSGGEEEDEDENIEVVYSKAASVPKVETVKSDNKDDDIDIDAI
B8: human 5MP1-CTD (domain or fragment, UniProt Q9Y6E2 248-419, looked up)
chain: VQQSLGTRKELQKELQERLSQECPIKEVVLYVKEEMKRNDLPETAVIGLLWTCIMNAVEWNKKEELVAEQALKHLKQYAPLLAVFSSQGQSELILLQKVQEYCYDNIHFMKAFQKIVVLFYKADVLSEEAILKWYKEAHVAKGKSVFLDQMKKFVEWLQNAEEESESEGEEN
B9: human 5MP1-CTD phosphomimetic mutant (5MP1-CTD-EE) (domain or fragment)
chain: VQQSLGTRKELQKELQERLSQECPIKEVVLYVKEEMKRNDLPETAVIGLLWTCIMNAVEWNKKEELVAEQALKHLKQYAPLLAVFSSQGQSELILLQKVQEYCYDNIHFMKAFQKIVVLFYKADVLSEEAILKWYKEAHVAKGKSVFLDQMKKFVEWLQNAEEEEEEEGEEN
B10: human eIF2β-NTT (residues 1–191), His6-tagged (domain or fragment)
chain: MSGDEMIFDPTMSKKKKKKKKPFMLDEEGDTQTEETQPSETKEVEPEPTEDKDLEADEEDTRKKDASDDLDDLNFFNQKKKKKKTKKIFDIDEAEEGVKDLKIESDVQEPTEPEDDLDIMLGNKKKKKKNVKFPDEDEILEKDEALEDEDNKKDDGISFSNQTGPAWAGSERDYTYEELLNRVFNIMREKN

Test [1] concerns the target human eIF5-CTD phosphomimetic mutant (eIF5-CTD-EE) (human) (UniProt P55010). The test is described as follows: NMR titration.
For test [2], the target named is B9. The test is described as follows: NMR titration.
Test [3] has as its target B8. The test is described as follows: NMR titration.
For test [4], the target named is B3. The test is described as follows: NMR titration.
Test [5] addresses B4. The test is described as follows: NMR titration.
Test [6] deals with B6. The test is described as follows: NMR titration.
For test [7], the target named is B6. The test is described as follows: ITC. Background: ITC needs no label: the signal is the heat of the interaction.
Test [8] addresses B10. The test is described as follows: NMR titration.
The target of test [9] is B2. The test is described as follows: NMR titration.
Test [10] concerns the target B10. The test is described as follows: ITC.
Test [11] has as its target B2. The test is described as follows: ITC.
Test [12] deals with T1, S. cerevisiae eIF5-CTD, eIF5 residues 201–405 (S. cerevisiae, UniProt P38431 201-405).
T1 sequence: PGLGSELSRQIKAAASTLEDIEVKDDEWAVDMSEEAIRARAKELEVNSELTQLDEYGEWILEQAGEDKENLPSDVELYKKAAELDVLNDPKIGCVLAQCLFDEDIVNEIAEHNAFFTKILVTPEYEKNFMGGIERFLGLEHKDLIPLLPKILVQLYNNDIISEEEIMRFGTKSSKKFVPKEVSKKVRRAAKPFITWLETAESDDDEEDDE
The test is described as follows: crystal structure.

Test [13] has as its target B6. The test is described as follows: NMR titration. This is another data set of the same source.

For orientation: Kd means the equilibrium constant for the complex coming apart. Higher therefore signals a looser complex. As for “human eIF2β-K1 (K-box 1 with surrounding segments) (from UniProt P20042 1-45) (domain or fragment)”, the dissociation constant (Kd) in [1] came to 0.2 µM.
As for “human eIF2β-K3 (K-box 3 with surrounding segments) (from UniProt P20042 106-173) (domain or fragment)”, the Kd in test [1] amounted to 0.3 µM.
In [1], “human eIF2β-NTT (residues 1–191), His6-tagged (from UniProt P20042 1-191) (domain or fragment)” had a dissociation constant Kd of 2.3 µM. Compared with the last molecule, the Kd is about 7.7-fold higher.

B1: human eIF2β-K2 (K-box 2 with surrounding segments) (domain or fragment, UniProt P20042 60-105, looked up)
chain: DTRKKDASDDLDDLNFFNQKKKKKKTKKIFDIDEAEEGVKDLKIES
Regarding B1, the Kd in [2] was 5.6 ± 0.9 µM; in test [3], 18 ± 3 µM; in test [4], 2.3 ± 0.5 µM; in test [5] it was 9 ± 3 µM; in test [6] it was 6 ± 1 µM.
For B2, the equilibrium dissociation constant (Kd) in test [7] was found to be 4.7 µM; in [3] it was 37 ± 5 µM; in test [5], 24 ± 3 µM; in [6], 4 ± 1 µM.
Regarding B3, the dissociation constant (Kd) in test [8] was 14 ± 4 µM; in [9], 14 ± 1 µM.
For the molecule B4, binding in [8] was put at a Kd of 44 ± 3 µM.

B5: human eIF2β-K1 (K-box 1 with surrounding segments) (domain or fragment, UniProt P20042 1-45, looked up)
chain: MSGDEMIFDPTMSKKKKKKKKPFMLDEEGDTQTEETQPSETKEVE
On to B5, for which the Kd in test [2] came to 11 ± 3 µM; in [3], 20 ± 7 µM; in test [4], 4 ± 1 µM; in test [5], 8 ± 1 µM; in test [6], 3 ± 1 µM.
As a reminder, the stoichiometry N is a count of units in the complex or per binding partner. Take B6: the “stoichiometry N” value in test [10] amounted to 3.46; in test [11] it was 1.

B7: S. cerevisiae eIF2β residues 39–106 (K-boxes 2 and 3 with flanking regions) (domain or fragment, UniProt P09064 39-106, looked up)
chain: GSGDDLFAGLKKKKKKSKSVSADAEAEKEPTDDIAEALGELSLKKKKKKTKDSSVDAFEKELAKAGLD
Take B7: the binding result in test [12] is listed as “binds”.
Molecule B8 registered a Kd in [8] of 63 ± 5 µM.
Regarding B9, the Kd in test [8] came to 45 ± 6 µM; in test [9] it was 23 ± 3 µM.
B10: the Kd in test [13] came out at 37 ± 6 µM; in [7], 33 µM.
